How the values were obtained:
[1] = molecular target: T1, bovine testes FSH receptors (bovine, UniProt P35376); assay: inhibition of 125I-hFSH binding to bovine testes FSH receptors
Protocol: (§1) The concentrations of the analogs were determined by sandwich immunoassay using antibodies B105 and A113. The term "N.D." means not determined because concentrations of analog were not employed high enough to detect 50% inhibition.

[2] = molecular target: rat luteal ovarian LH receptors (rat, UniProt P16235); assay: inhibition of 125I-hCG binding to rat luteal ovarian LH receptors
Protocol: as §1
An aliquot of the ligation mixture was taken and used to transform DH5-alpha strain E. coli. (obtained from Bethesda Research Laboratories, Gaithersburg, Md.). Plasmid DNAs from ampicillin-resistant DH5-alpha clones were screened by digestion with BglII (which is unique to vectors containing the cassette) and EcoRI (which cuts in the vector). Positive clones were identified by the presence of two fragments (approximately 0.8 Kbp and 2.9 Kbp). […] The remainder of the beta-subunit cDNA (encoding hCGβ amino acids 1–87) was restored by ligation of the 2.3 Kbp PvuI-PvuII fragment of this vector and the 2.9 Kbp PvuI-PvuII fragment from pSVL-hCG-beta'. […] After the DNA was subjected to a dideoxy sequencing procedure to confirm that it encoded "GT" (Table 1), the plasmid DNA was then cotransfected into COS-7 cells (obtained from the American Type Culture Collection) along with pSVL-hCG-alpha, a pSVL-based plasmid encoding the human glycoprotein hormone alpha-subunit (10, 21), using a DEAE-dextran procedure (10).

[3] = molecular target: T1, bovine testes FSH receptors; assay: inhibition of 125I-hFSH binding to bovine testes FSH receptors (N.D. in Table 3)

binding result [1] | activity relative to hCG (LH RECEPTORS; ratio of concentrations for 50% inhibition) [2] | binding result [3] | binding result [2] | Binder
no binding | 0.15 relative to recombinant hCG |  |  | Analog "Q" (ligand) chain 1: not shown chain 2: SKEPLRPRCRPINATLAVEKEGCPVCITVNITICAGYCPTMTRVLQGVLPALPQVVCNYRDVRFESIRLPGCPRGVNPVVSYAVALSCQCALCDSDSTDCGGPKDHPSYCSFGE
no binding |  |  |  | recombinant hCG (ligand) chain 1: not shown chain 2: SKEPLRPRCRPINATLAVEKEGCPVCITVNITICAGYCPTMTRVLQGVLPALPQVVCNYRDVRFESIRLPGCPRGVNPVVSYAVALSCQCALCRRSTTDCGGPKDHPLTCDDPRFQDSSSSKAPPPSLPSPSRLPGPSDTPILPQ
 |  | no binding |  | Analog "D" (ligand) chain 1: not shown chain 2: SKEPLRPRCRPINATLAVEKEGCPVCITVNITICAGYCPTMTRVLQGVLPALPQVVCNYRDVRFESIRLPGCPRGVNPVVSYAVALSCQCALCDSDSTDCGGPKDHPLTCDDPRFQDSSSSKAPPPSLPSPSRLPGPSDTPILPQ
 | 0.33 relative to recombinant hCG | no binding |  | Analog "GT" (ligand) chain 1: not shown chain 2: SKEPLRPRCRPINATLAVEKEGCPVCITVNITICAGYCPTMTRVLQGVLPALPQVVCNYRDVRFESIRLPGCPRGVNPVVSYAVALSCQCALCRRSTTDCIHEAIKTNYCTKPQKSY
 |  |  | no binding | recombinant hFSH (ligand) chain 1: not shown chain 2: NSCELTNITIAIEKEECRFCISINITWCAGYCYTRDLVYKDPARPKIQKTCTFKELVYETVRVPGCAHHADSLYTYPVALQCHCGKCDSDSTDCTVRGLGPSYCSFGEMKE

Source: US5508261, “Analogs of glycoprotein hormones having altered receptor binding specificity and activity and methods for preparing and using same” (University of Medicine & Dentistry of New Jersey, dated 1996)
